Assay [1] has as its target T1, full length human PD-L1 (amino acids 1 to 290 of NP_054862.1) on transfected cells (human, UniProt Q9NZQ7 19-290).
T1 construct: also called HEK293/hPD-L1; Raji/hPD-L1
Description: FACS, 100 nM antibody, HEK293/hPD-L1 cells. The protocol: (§1) The binding of anti-PD-L1 antibodies to a human embryonic kidney cell line (HEK293; ATCC, #CRL-1573) stably transfected with full length human PD-L1 (amino acids 1 to 290 of accession number NP_054862.1) (HEK293/hPD-L1) was determined by FACS.
(§2) For the assay, adherent cells were detached using enzyme-free dissociation buffer and blocked with complete medium. Cells were centrifuged and resuspended at a concentration of 2.8×10\hat{ }6 cells/mL in cold PBS containing 2% FBS. […] Cells were washed with D-PBS containing 2% FBS to remove unbound secondary detection reagents and fluorescence measurements were acquired using a HyperCyte (IntelliCyt, Inc.) flow cytometer. Data was analyzed using HyperCyte software.
For orientation: A flow cytometer gives signals particle by particle.

Assay [2] deals with T1, full length human PD-L1 (amino acids 1 …). Description: FACS, 100 nM antibody. The protocol:
as §1, §2

Assay [3] has as its target T2, recombinant human PD-L1 (amino acids 19-239 of NP_054862.1) expressed with a C-terminal mouse IgG2a Fc tag (human).
T2 construct: called dimeric; also called hPD-L1-mFc
Description: competition ELISA: 0.5 nM hPD-L1-mFc binding to coated hPD-1-hFc. The method, then:
(§3) The ability of monoclonal anti-PD-L1 antibodies to block human PD-L1 from binding to its binding partners, the human PD-1 and the human B7-1 receptors, was measured using two competition sandwich ELISA formats.
(§4) A dimeric human PD-1 protein comprised of a portion of the extracellular domain (amino acids 25-170 of accession number NP_005009.2 with a C93S change) that was expressed with a C-terminal hFc tag (hPD-1-hFc; SEQ ID: 350) and a dimeric human B7-1 protein comprised of a portion of the extracellular domain expressed with C-terminal hFc tag and hexahistidine tags (hB7-1-hFc-6His; R&D Systems, #140-B1) were separately coated at 2 μg/mL on a 96-well microtiter plate in a PBS buffer overnight at 4° C. […] These antibody-protein complexes were then incubated for 1 hour at room temperature (RT). […] The complexes were allowed to bind to the coated plates for 1 hour at RT. […] Samples were developed with a TMB solution (BD Biosciences, #51-2606KC and #51-2607KC) to produce a colorimetric reaction and neutralized with 1M sulfuric acid before measuring absorbance at 450 nm on a Victor X5 plate reader. Data analysis used a sigmoidal dose-response model within Prism™ software.
(In general: In an ELISA, binding on a coated surface is turned into a signal by an enzyme label.)

In assay [4] the target is T2, recombinant human PD-L1 (amino acids …). Description: BLI (Octet Red96): 100 nM hPD-L1-mFc + 500 nM mAb on captured hPD-1-hFc, 25C. The protocol: Inhibition studies for anti-PD-L1 monoclonal antibodies expressed with mouse Fc were performed on an Octet Red96 instrument. […] Approximately 0.8 nm to 1.2 nm of recombinant human PD-1 expressed with a C-terminal human IgG1 Fc tag (hPD-1-hFc; SEQ ID: 350) was captured using anti-human IgG Fc capture biosensors. […] The entire experiment was performed at 25° C. in Octet HBST buffer (0.01 M HEPES pH7.4, 0.15M NaCl, 3 mM EDTA, 0.05% v/v Surfactant P20, 0.1 mg/mL BSA) with a plate shaking at a speed of 1000 rpm. The biosensors were washed in Octet HBST buffer in between each step of the experiment. The real-time binding response was monitored during the course of the experiment and the binding response at the end of every step was recorded.
(In general: In BLI a coated tip is dipped into the sample, and binding shifts an interference pattern.)

The target in assay [5] is T1, full length human PD-L1 (amino acids 1 …). Description: cell-based or functional assay.
The target in assay [6] is T2, recombinant human PD-L1 (amino acids …). Description: competition ELISA: 8 nM hPD-L1-mFc binding to coated hB7-1-hFc-6His. The protocol:
as §3, §4

Bounds are passed on as bounds.

Broadly, the IC50 is the midpoint of a concentration-inhibition curve.

T1 sequence (Q9NZQ7 19-290 limits assumed): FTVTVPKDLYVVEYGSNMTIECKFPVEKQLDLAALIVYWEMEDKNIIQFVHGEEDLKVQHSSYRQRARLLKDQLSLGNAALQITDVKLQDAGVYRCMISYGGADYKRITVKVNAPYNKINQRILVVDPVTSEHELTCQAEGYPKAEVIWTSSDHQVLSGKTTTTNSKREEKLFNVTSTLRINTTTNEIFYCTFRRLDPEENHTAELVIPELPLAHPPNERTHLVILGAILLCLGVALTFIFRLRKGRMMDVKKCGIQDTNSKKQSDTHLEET
T2 sequence (chain, as listed by the source limits assumed): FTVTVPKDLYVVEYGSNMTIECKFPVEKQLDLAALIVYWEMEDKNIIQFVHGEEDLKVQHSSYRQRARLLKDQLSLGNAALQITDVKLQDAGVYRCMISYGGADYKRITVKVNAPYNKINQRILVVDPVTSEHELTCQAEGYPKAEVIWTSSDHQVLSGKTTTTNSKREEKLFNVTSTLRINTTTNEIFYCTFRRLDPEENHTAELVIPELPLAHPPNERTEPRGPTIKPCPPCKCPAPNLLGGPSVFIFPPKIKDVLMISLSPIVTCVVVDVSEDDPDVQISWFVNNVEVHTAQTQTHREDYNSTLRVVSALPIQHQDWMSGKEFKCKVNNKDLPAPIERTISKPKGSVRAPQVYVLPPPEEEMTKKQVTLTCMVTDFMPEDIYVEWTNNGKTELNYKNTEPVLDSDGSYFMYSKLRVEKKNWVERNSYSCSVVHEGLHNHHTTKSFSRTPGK

B1: H2aM8310N (antibody, V domains shown)
VH: QVQLVQSGAEVKKPGASVQVSCKASGYSFTGYYIHWVRQAPGQGLEWMGWINPNSGTKKYAHKFQGRVTMTRDTSIDTAYMILSSLISDDTAVYYCARDEDWNFGSWFDSWGQGTLVTVSS
VL: DIVMTQTPLSSPVTLGQPASISCRSSQTLVHGDGNTYLSWIQQRPGQPPRLLIYKVSNQFSGVPDRFSGSGAGTDFTLKISRVEAEDVGLYFCMQATHFPITFGQGTRLEIK
notes: human variable regions, mouse IgG2 Fc (H2aM prefix); also called H2M8310N
With B1, the MFI in assay [1] came to 14900 MFI. Besides, the “Ratio of HEK293/hPD-L1 to HEK293 parental cells” value (“Ratio of HEK293/hPD-L1” for short) in assay [2] is 11. Moreover, in assay [3], the “% maximum blocking” value was found to be 76% and the IC50 stood at 0.39 nM. Also, the “% Blocking” value in assay [4] was found to be 58%. The “Emax mean [%] @ 100 nM” value in assay [5] came out at 113%. Besides, in assay [6], the “% maximum blocking” value was found to be 98% and the IC50 was below 4 nM.

B2: H2aM8314N (antibody, V domains shown)
VH: EVQLVESGGGVVRPGGSLRLSCAASGFTFDDYGMTWVRQAPGRGLEWVSGIHWHGKRTGYADSVKGRFTISRDNAKKSLYLQMNSLKGEDTALYHCVRGGMSTGDWFDPWGQGTLVIVSS
VL: DIQMTQSPSSLSASLGDRVTITCRASQSINSYLNWYQQKPGKAPKLLIYVASSLQSGVPSRFSGSGSGTEFTLTISNLQPEDFATYYCQQSYSTPPITFGQGTRLEIK
notes: human variable regions, mouse IgG2 Fc (H2aM prefix); also called H2M8314N
The molecule B2 displayed an MFI in assay [1] of 195000 MFI. For the same molecule, in assay [2], the “Ratio of HEK293/hPD-L1” value was determined as 95. In assay [3], the “% maximum blocking” value was found to be 93% and the IC50 is below 0.25 nM. For the same molecule, in assay [4], the “% Blocking” value stood at 94%. In assay [5], the “Concentration [M] of Antibody at 125% activation” value was 1.44e-11 M and the “Emax mean [%] @ 100 nM” value came out at 235%. Besides, in assay [6], the “% maximum blocking” value is 97% and the IC50 is below 4 nM.

B3: H2aM8317N (antibody, V domains shown)
VH: EVQLVESGGGLVQPGGSLRLSCAASGFTVGSNYMNWVRQAPGKGLEWVSVIYSGGSTYYADSVKGRFTISRLTSKNTLYLQMSSLRPEDTAVYYCARGIRGLDVWGQGTTVTVSS
VL: DIQMTQSPSSLSASVGDRVTITCRASQTINIYLNWYQQKPGRAPRLLIYAASSLQSGVPSRFSGSGSGTDFTLTISSLQPEDFATYYCHQSYSTPPITFGQGTRLEIK
notes: human variable regions, mouse IgG2 Fc (H2aM prefix); also called H2M8317N
B3: the MFI in assay [1] was found to be 67600 MFI. Moreover, the “Ratio of HEK293/hPD-L1” value in assay [2] was 53. For the same molecule, the “% maximum blocking” value in assay [3] was -11%; in assay [6], -166%. Further, in assay [4], the “% Blocking” value was -87%. In addition, the “Emax mean [%] @ 100 nM” value in assay [5] is 109%.

B4: H2aM8312N (antibody, V domains shown)
VH: QVHLVQSGAEVKKPGASVKVSCKASGYTFTGYYIHWVRQAPGHGLEWMGWLNPNTGTTKYIQNFQGRVTMTRDTSSSTAYMELTRLRSDDTAVYYCARDEDWNYGSWFDTWGQGTLVTVSS
VL: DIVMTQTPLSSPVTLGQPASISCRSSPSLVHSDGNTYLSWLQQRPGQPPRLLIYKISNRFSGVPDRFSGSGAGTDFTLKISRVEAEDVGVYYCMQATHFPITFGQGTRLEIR
notes: human variable regions, mouse IgG2 Fc (H2aM prefix); also called H2M8312N
In assay [1], B4 gave an MFI of 158000 MFI. For the same molecule, in assay [2], the “Ratio of HEK293/hPD-L1” value was determined as 115. Besides, the “% maximum blocking” value in assay [3] is 23%. Also, the “% Blocking” value in assay [4] was -68%. Besides, in assay [5], the “Emax mean [%] @ 100 nM” value worked out at 75.6%. In assay [6], the “% maximum blocking” value was 98% and the IC50 was below 4 nM.

B5: H2aM8309N (antibody, V domains shown)
VH: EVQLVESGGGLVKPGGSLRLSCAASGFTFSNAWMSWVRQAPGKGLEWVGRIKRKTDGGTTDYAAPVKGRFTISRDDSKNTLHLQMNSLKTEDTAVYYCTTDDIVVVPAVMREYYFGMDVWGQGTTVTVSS
VL: DIQMTQSPSSLSASVGDRVTITCRTSQGIRNDLGWYQQKPGKAPKRLIYAASSLQSGVPSRFSGSGSGTEFTLTISSLQPEDFATYYCLQHNNYPYTFGQGTKLEIK
notes: human variable regions, mouse IgG2 Fc (H2aM prefix); also called H2M8309N
The molecule B5 gave an MFI in assay [1] of 193000 MFI. For the same molecule, the “Ratio of HEK293/hPD-L1” value in assay [2] turned out to be 166. Further, in assay [3], the “% maximum blocking” value is 98% and the IC50 was below 0.25 nM. In addition, the “% Blocking” value in assay [4] amounted to 94%. Also, in assay [5], the “Concentration [M] of Antibody at 125% activation” value was 3.09e-10 M and the “Emax mean [%] @ 100 nM” value amounted to 181%. In assay [6], the “% maximum blocking” value amounted to 98% and the IC50 was below 4 nM.

For the origin of these results see patent US20210380702A1 (Regeneron, published 2021).
